From US20250034594A1, “RNA-GUIDED GENOME RECOMBINEERING AT KILOBASE SCALE” (THE BOARD OF TRUSTEES OF THE LELAND STANFORD JUNIOR …, priority 2021, published 2025) come the findings set out here.

Format in all cases: cell-based
One experiment concerns gene editing with Cas9. As to the kind of experiment: Screen of 322 new SSAP proteins, gene editing activity with Cas9 (Table 5). Further details: Cas9 with SSAP activity: scale not given here. Put shortly: (§1)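 First, 322 new single-strand annealing proteins are identified from sequences. Next they are synthesized. Finally each is assayed for editing in combination with Cas9 and, separately, dCas9.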

The subject of the next experiment is gene editing with dCas9. The experiment can be described thus: Screen of 322 new SSAP proteins, gene editing activity with dCas9 (Table 5). Further details: dCas9 with SSAP activity: scale not given here. Put shortly:
as §1

In experiment [1] the test system is gene editing with Cas9 and dCas9. The experiment can be described thus: Screen of 322 new SSAP proteins, activity across all experiments (Cas9 and dCas9, Table 5). Further details: scale not given here. The essentials: as §1

B1: SSAP_255: SEQ ID NO: 424; Bacteroides eggerthii (protein, listed as Bacteroides eggerthii)
chain: GTVTTVPQLKSMLANENVKSRFKEILGKKAPGFISSIVAVANSNTLLQKAEPQSIMNAAVIAATLDLPINPNLGFAYIIPYGNQASFQIGYKGMTQLAMRSGQYKTINVTEVYEGEIKSENRFTGEYTFGERKSDKIVGYMAYFSLTNGFEKYMYMSREECEKHGKKFSQTYKRGGGLWATDFDSMSKKTVLKMLISKYGILSIDMQRAQTFDQAVVKDDLVEKNIDEAEVSYEDNPTNADVRRNAMKEALEEAEVVDETTGEIFNQPAQ
B1: in the experiment on gene editing with Cas9, the “Cas9 with SSAP activity” value is on record as −0.273 and the “Cas9 with SSAP activity (normalized)” value is −0.044. The “dCas9 with SSAP activity” value in the experiment on gene editing with dCas9 was −7.473. Besides, in experiment [1], the “Activity across all experiments” value is recorded as −3.873.

B2: SSAP_311: SEQ ID NO: 480; Paenibacillus graminis (protein, listed as Paenibacillus graminis)
chain: TVAIETQVQETLDRILDSKHDALPSDFKKKRFSENCKVYVAEEKDLHKYTIDDIVANLFKGAVLGLDFLAKECHLITGGVDLKFQTDYKGEMKLTKKYSVRPMLDVYAKNVREGDIFREQIIEGRPAIHFDPLPFNASKIIGSFAIALFQDGGMVYESIPAGEIEEIRKNYGKSLGDAWEKSQGEMYKRTVLRRLCKTIETDFDAEQRLIYEMGGAFEFTKQPTRSRQQSPFNPPEESEVIQNDRAAETDQG
On to B2, for which, in the experiment with gene editing with Cas9, the “Cas9 with SSAP activity” value is on record as −6.123 and the “Cas9 with SSAP activity (normalized)” value is −0.874. In addition, in the experiment on gene editing with dCas9, the “dCas9 with SSAP activity” value is −7.375 and the “dCas9 with SSAP activity (normalized)” value is −1.526. The “Activity across all experiments” value in experiment [1] was −6.749.

B3: SSAP_144: SEQ ID NO: 313; Romboutsia weinsteinii (protein, listed as Romboutsia weinsteinii)
chain: TNLKNTLKNKEAKGNNLAINPSYAMKQLMIKMKGEITSALPKELCSERFQRVALTAFNSNPKLQNCAPMTFIAAMMQSDQLGLEPNTPLGQAYLIPYKVKGIDKVQFQIGYKGLLELAHRSGRLKTLYAHEVRENDEFDIDYGLEQRLIHKPLLKGNRGEVIGYYAVYHLEHNGYSFVFMTYDEVLEHGKKYSKSFEGGIWEKEFDSMAKKTVIKKLLKYAPLSIEIQKAINFDESVKGSIDSDMLLVDKADESIDVEGNVLNQRGIKYGCI
As for B3, in the experiment with gene editing with Cas9, the “Cas9 with SSAP activity” value was −2.249 and the “Cas9 with SSAP activity (normalized)” value is −0.663. For the same molecule, in the experiment with gene editing with dCas9, the “dCas9 with SSAP activity” value was −7.293 and the “dCas9 with SSAP activity (normalized)” value is given as −1.765. Further, in experiment [1], the “Activity across all experiments” value is listed as −4.771.

B4: SSAP_80: SEQ ID NO: 249 (protein)
chain: GHLVSKTEQDYIKQHYAKGATDQEFEHFIGVCRARGLNPAANQIYFVKYRSKDGPAKPAFILSIDSLRLIAHRTGDYAGCSEPIFTDGGKACTVTVRRNLKSGETGNFSGMAFYDEQVQQKNGRPTSFWQSKPRTMLEKCAEAKALRKAFPQDLGQFYIREEMPPQYDEPIQVHKPKALEEPRFSKSDLSRRKGLNRKLSALGVDPSRFDEVATFLDGTPDRELGQKLKLWLKEAGYGVNQ
As to B4, in the experiment on gene editing with Cas9, the “Cas9 with SSAP activity” value was −3.757 and the “Cas9 with SSAP activity (normalized)” value is given as −0.629. Moreover, in the experiment with gene editing with dCas9, the “dCas9 with SSAP activity” value is given as −7.200 and the “dCas9 with SSAP activity (normalized)” value was −1.353. Further, in experiment [1], the “Activity across all experiments” value was −5.479.

B5: SSAP_260: SEQ ID NO: 429; Clostridium cochlearium (protein, listed as Clostridium cochlearium)
chain: ATNESLKNQLATKKETGIGSAGNTIKSLINSPVIKKRFEEVLDKRAPQYMSSIVNLVNSDTNLKKCDQMSVIASCMVAATMDLPVDKNLGYAWIVPYGNKAQFQMGYKGYVQLALRTGQYKSINVIEVHEGELEEWNPLTEELKIDFSKKESDAVIGYAGYFELLNGFKKSTYWTKEQITKHKNKFSKSDFGWKKDFDAMAKKTVLRNMLSKWGILSIEMQNAYTADHGVIKNEIMETGEVKENVEYIEADFESYEGTSIEEGGSNE
Take B5: in the experiment on gene editing with Cas9, the “Cas9 with SSAP activity” value is −3.745 and the “Cas9 with SSAP activity (normalized)” value is −0.581. In addition, in the experiment with gene editing with dCas9, the “dCas9 with SSAP activity” value was −7.734 and the “dCas9 with SSAP activity (normalized)” value was −1.301. Moreover, the “Activity across all experiments” value in experiment [1] is given as −5.739.

B6: SSAP_161: SEQ ID NO: 330; Solobacterium moorei (protein, listed as Solobacterium moorei)
chain: TEIKAAKAPATVAKAGVSTQNKTIKDYITIMKPEIEKALPSTITPERFTRITLSAVSNNPKLQACSPSTFLSAMMQSAQLGLEPNTPLGQAYLIPYGNSCQFQLGYKGLLQLAYNSGQIKTIRTETVYENDEFKYELGLHSDLVHVPAMSNRGNPTAYYAVIEYTNGGYGFEVMSHDDVLEHAKKFSKTFNNGPWQSDFESMAKKTVLKQALKYAPLSTELVSKINTDETVKSSISDHMEEVKNDIDLSQIIDAETGEIHE
B6: in the experiment on gene editing with Cas9, the “Cas9 with SSAP activity” value is −1.623 and the “Cas9 with SSAP activity (normalized)” value is −0.850. In the experiment with gene editing with dCas9, the “dCas9 with SSAP activity” value is given as −0.092 and the “dCas9 with SSAP activity (normalized)” value is on record as −0.051. Besides, the “Activity across all experiments” value in experiment [1] is −0.857.

B7: SSAP_63: SEQ ID NO: 232 (protein)
chain: SELQQAAQGQADAGPVQVIYSHAKEIQNVLAKGTDMDRWLQMARLAVMRDPNLVNAAKRDPGSLMQAMLDCAEKGHIPGTEDYYLVPRKGGIQGMESWKGIAKRIMRSGRYQSIVAEVVYEGEDFDFNPNTMDRPVHQIKYMARTSGQPVLSYAYAVDHEGKPSTIAVADPRYIAKVKANSKGTVWADWDEAMYKKTAVKMLVDYVDTSSTDRRGVSTVQVDGPVGTFIDGVLEIEGGDQ
For B7, in the experiment on gene editing with Cas9, the “Cas9 with SSAP activity” value amounted to 0.570 and the “Cas9 with SSAP activity (normalized)” value turned out to be 2.381. In the experiment on gene editing with dCas9, the “dCas9 with SSAP activity” value was −7.424 and the “dCas9 with SSAP activity (normalized)” value is reported as −1.335. Also, the “Activity across all experiments” value in experiment [1] was −3.427.

B8: SSAP_7: SEQ ID NO: 176 (protein)
chain: STNDELKNKLANKQNGGQVASAQSLGLKGLLEAPTMRKKFESVLDKKAPQFLTSLLNLYNGDDYLQKTDPMTVVTSAMVAATLDLPIDKNLGYAWIVPYKGRAQFQLGYKGYIQLALRTGQYKSINVIEVRDGELLKWNRLTEEIELDLDNNTSEKVIGYCGYFQLINGFEKTVYWTRKEIEAHKKKFSKSDFGWKKDYDAMAKKTVLRNMLSKWGILSIDMQTAVTEDEAEPRERKDVTEDESIPDIIDAPITPSDTLEAGSEVQGSMI
B8: in the experiment on gene editing with Cas9, the “Cas9 with SSAP activity” value was −7.628 and the “Cas9 with SSAP activity (normalized)” value is on record as −1.701. In the experiment on gene editing with dCas9, the “dCas9 with SSAP activity” value is −7.447 and the “dCas9 with SSAP activity (normalized)” value is −1.443. For the same molecule, in experiment [1], the “Activity across all experiments” value is recorded as −7.537.

B9: SSAP_79: SEQ ID NO: 248 (protein)
chain: EALLLRRWQMGNLTKTTGFALAPQNLEQAMQLATMICNSQLAPNNYKGKPEDTLVAMMMGHELGLNPLQSIQNIAVINGRPSIYGDALLALVQNSPAFGGIQESFDEDTMTATCTVWRKGGEKHTQHYSKDDADTAGLWGKQGPWKQHPKRMLAMRARGFAVRNQFADALAGLVTREEAEDMEKEINPTPAPQAQSKRIGQKQSRTQYSESDFNENFPKWKAAVESGKKTSEQIISMVSTKGDLTQGMIEAIESIEAGEPA
B9: in the experiment on gene editing with Cas9, the “Cas9 with SSAP activity” value was −1.629 and the “Cas9 with SSAP activity (normalized)” value is −2.086. Besides, in the experiment with gene editing with dCas9, the “dCas9 with SSAP activity” value is −7.349 and the “dCas9 with SSAP activity (normalized)” value is reported as −2.203. In addition, in experiment [1], the “Activity across all experiments” value is on record as −4.489.
